Laboratory results from US20130280734A1.

Target: human GLP-1 receptor (GLP-1R) (human) (UniProt P43220)
Test: cell-based or functional assay
Conditions: scale: times higher concentration than the active forms of GLP-1

human GLP-1 receptor (GLP-1R) (human), sequence (P43220 24-463 limits assumed): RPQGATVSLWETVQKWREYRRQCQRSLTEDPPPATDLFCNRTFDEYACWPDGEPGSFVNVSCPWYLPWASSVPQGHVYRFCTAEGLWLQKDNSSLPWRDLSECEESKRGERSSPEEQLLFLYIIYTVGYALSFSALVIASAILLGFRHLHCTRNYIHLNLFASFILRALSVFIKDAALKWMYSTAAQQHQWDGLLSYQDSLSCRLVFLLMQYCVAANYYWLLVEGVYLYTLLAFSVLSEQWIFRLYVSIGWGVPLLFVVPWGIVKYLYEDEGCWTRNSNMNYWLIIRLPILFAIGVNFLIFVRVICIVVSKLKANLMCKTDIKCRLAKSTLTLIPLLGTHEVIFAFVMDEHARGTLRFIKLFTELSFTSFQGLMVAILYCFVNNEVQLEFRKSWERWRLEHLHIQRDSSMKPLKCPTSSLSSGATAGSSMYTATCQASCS

Row | Substance | reactivity of the kit (aequorin luminescence), concentration relative to the active forms of GLP-1
1 | GIP (gastric inhibitory peptide or glucose-dependent insulinotropic polypeptide) (from UniProt P09681 52-93) | > 1e+06
2 | GLP-1 (9-36 amide) (from UniProt P01275 21-180) (peptide) | > 1e+06
3 | GLP-2 (from UniProt P01275 146-178) (peptide) | > 1e+06
4 | precursor GLP-1 (1-37) (from UniProt P01275 21-180) (peptide) | 10000
